What all share (assay): cytokine release
Test [1] addresses T1, EBV LMP1; LMP1*167 peptide on HLA-A*02:01 (human).
T1 peptide: LLVDLLWLL

Test [2] concerns the target T2, EBV LMP1; LMP1*32 peptide on HLA-A*02:01 (human).
T2 peptide: LLLALLFWL

The target of test [3] is T3, EBV LMP1; LMP1*92 peptide on HLA-A*02:01 (human).
T3 peptide: LLLIALWNL

Test [4] has as its target T4, EBV LMP1; LMP1*125 peptide on HLA-A*02:01 (human).
T4 peptide: YLLEMLWRL

The target in test [5] is T5, EBV LMP1; printed as LMP1*125 (the same label as …) peptide on HLA-A*02:01 (human).
T5 peptide: YLQQNWWTL

Test [6] concerns the target T6, EBV LMP1; LMP1*173 peptide on HLA-A*02:01 (human).
T6 peptide: WLLLFLAIL

B1: LMP1*166 S4-12 TCR (TCR, V domains shown)
Valpha: GEQVEQRPPHLSVREGDSAVIICTYTDPNSYYFFWYKQEPGAGLQLLMKVFSSTEINEGQGFTVLLNKKDKQLSLNLTAAHPGDSAVYFCAVSGTGGYKVVFGSGTRLLVSP
Vbeta: NSKVIQTPRYLVKGQGQKAKMRCIPEKGHPVVFWYQQNKNNEFKFLINFQNQEVLQQIDMTEKRFSAECPSNSPCSLEIQSSEAGDSALYLCASNQLGSSYEQYFGPGTRLTVL
With B1, the binding result is on record as “recognises” in test [1]; “no recognition” in test [2]; “no recognition” in test [3]; “no recognition” in test [4]; “no recognition” in test [5]; “no recognition” in test [6].
